The target of this test is Y289L_C342T mutant of the catalytic domain (residues 130-402) of bovine β(1,4)-galactosyltransferase I (bovine) (UniProt P08037). Description: cell-based or functional assay.

The values below come from patent US20060084162A1.

Sequence of UniProt P08037 (P08037 other isoform, or with tags, fused parts or gaps Y289L C342T Y289L C342T): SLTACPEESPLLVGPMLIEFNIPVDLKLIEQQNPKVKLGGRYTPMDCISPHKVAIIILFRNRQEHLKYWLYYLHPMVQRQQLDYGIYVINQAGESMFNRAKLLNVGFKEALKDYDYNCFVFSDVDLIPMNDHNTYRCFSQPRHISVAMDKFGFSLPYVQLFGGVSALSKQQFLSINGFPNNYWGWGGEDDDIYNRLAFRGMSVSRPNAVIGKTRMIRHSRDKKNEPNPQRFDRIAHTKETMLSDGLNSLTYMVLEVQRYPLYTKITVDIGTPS

Take “bovine α-Lactalbumin (Sigma) (from UniProt P00711 20-142)”: the GalNAc-T activity of Y289L mutant with acceptor Glc (100 mM), 500 µM UDP-GalNAc, +LA 55 µM (the value without LA in the same row is 2.6) turned out to be 34.8 pmol/min/ng; the GalNAc-T activity of Y289L mutant with acceptor GlcNAc (100 mM), 500 µM UDP-GalNAc, +LA 55 µM (the value without LA in the same row is 31.3) is 3.3 pmol/min/ng; the GalNAc-T activity of Y289L mutant with acceptor Glucosamine (100 mM), 500 µM UDP-GalNAc, +LA 55 µM (the value without LA in the same row is 1.8) amounted to 5 pmol/min/ng.
